This note sets out measurements from paper PMC6635533.

The target of assay [1] is RocAM1 with a C-terminal FLAG tag, full length (amino acids 1 to 451), expressed in GAS M18 strain H566 (strain M1_F) (Streptococcus pyogenes (group A Streptococcus), serotype M1 strain 854). The assay is described as follows: cross-linking; live GAS M18 strains treated with 1% formaldehyde (10 min, room temperature), quenched with 250 mM glycine; protoplast preparations, SDS-PAGE, anti-FLAG blot.

Assay [2] addresses RocA_(FLAG) expressed from a single chromosomal copy in GAS M1 strain 854 (strain 854_chF) (Streptococcus pyogenes (group A Streptococcus), serotype M1 strain 854). The assay is described as follows: cross-linking; formaldehyde cross-linking with GAS M1 strain 854_chF (native expression level); RocA_(FLAG) affinity purified from the protoplast lysate for detection by anti-FLAG blot.

Assay [3] concerns the target RocA cytoplasmic domain (amino acids 226 to 451) with a C-terminal FLAG tag, expressed in GAS M18 strain H566 (strain CYT_F) (Streptococcus pyogenes (group A Streptococcus), serotype M1 strain 854). The assay is described as follows: cross-linking; live GAS M18 strains treated with 1% formaldehyde (10 min, room temperature), quenched with 250 mM glycine; protoplast preparations, SDS-PAGE, anti-FLAG blot.

Assay [4] addresses RocAM3 with a C-terminal FLAG tag (amino acids 1 to 416), expressed in GAS M18 strain H566 (strain M3_F) (Streptococcus pyogenes (group A Streptococcus), serotype M3 strain 188). The description is as above.

Several values for one entry are separate records, joined by “and”; a condition that tells them apart may be missing. Equal values may be shown once.

One may read the stoichiometry N as the number of molecules, sites or subunits per partner or assembly. Regarding “RocAM1 with a C-terminal FLAG tag, full length (amino acids 1 to 451), expressed in GAS M18 strain H566 (strain M1_F) (natural protein)”, the stoichiometry N in assay [1] is 2 and 4.
Consider “RocA_(FLAG) expressed from a single chromosomal copy in GAS M1 strain 854 (strain 854_chF) (natural protein)”, for which the stoichiometry N in assay [2] worked out at 2.
In assay [3], “RocA cytoplasmic domain (amino acids 226 to 451) with a C-terminal FLAG tag, expressed in GAS M18 strain H566 (strain CYT_F) (domain or fragment)” registered a stoichiometry N of 2.
“RocAM3 with a C-terminal FLAG tag (amino acids 1 to 416), expressed in GAS M18 strain H566 (strain M3_F) (natural protein)” showed a stoichiometry N in assay [4] of 2.
